Experimental data taken from the supplement of paper PMC9112550, “Optimization of the antimicrobial peptide Bac7 by deep mutational scanning” (BMC Biology, 2022).

test system: Escherichia coli TOP10; assay: shrunken log2 fold change of peptide-encoding DNA abundance (4.5 h post-induction vs induction); higher = less antimicrobial activity (less host growth inhibition); details: time post-induction: 4.5 h; library: site-saturation at positions 5, 18, 19, 20
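Further: peptides expressed intracellularly from a pBAD plasmid library in pooled LB shake-flask culture, induced with 0.3% L-arabinose, DNA abundance read by NGS, three biological replicates, DESeq2 with apeglm shrinkage.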

Compared with RRIRIRPPRLPRPRPRPNFNPRP, RRIRMRPPRLPRPRPRPGTNPRP is higher in “shrunken log2 fold change” value: -0.745 for the first, 1.55 for the second.

RRIRDRPPRLPRPRPRPKADPRP and RRIRARPPRLPRPRPRPVQSPRP are within 0.2 log units of each other in “shrunken log2 fold change” value: -0.0266 for the first, 0.14 for the second.

Compared with RRIRVRPPRLPRPRPRPFRPPRP, RRIRWRPPRLPRPRPRPASDPRP is higher in “shrunken log2 fold change” value: -0.324 for the first, 0.342 for the second.

First: RRIRVRPPRLPRPRPRPQSVPRP
Second: RRIRARPPRLPRPRPRPGAIPRP
The “shrunken log2 fold change” value of the first is lower: -0.0666 for the first, 0.828 for the second.

Compared with RRIRGRPPRLPRPRPRPKWEPRP, RRIRKRPPRLPRPRPRPLQVPRP is lower in “shrunken log2 fold change” value: 1.13 for the first, 0.333 for the second.

RRIRNRPPRLPRPRPRPYKDPRP and RRIRARPPRLPRPRPRPCHTPRP are within 0.2 log units of each other in “shrunken log2 fold change” value: 0.0141 for the first, 0.0762 for the second.

Going from RRIRMRPPRLPRPRPRPAWNPRP to RRIRNRPPRLPRPRPRPKWGPRP, the “shrunken log2 fold change” value falls from 0.43 to 0.147.

Compared with RRIRARPPRLPRPRPRPKKNPRP, RRIRVRPPRLPRPRPRPYTIPRP is lower in “shrunken log2 fold change” value: 0.441 for the first, -0.736 for the second.

Compared with RRIRLRPPRLPRPRPRPFWKPRP, RRIRWRPPRLPRPRPRPDIWPRP is higher in “shrunken log2 fold change” value: 0.379 for the first, 0.642 for the second.

Going from RRIRYRPPRLPRPRPRPMPNPRP to RRIRGRPPRLPRPRPRPHIIPRP, the “shrunken log2 fold change” value rises from -0.0961 to 0.234.

RRIRIRPPRLPRPRPRPPCQPRP and RRIRSRPPRLPRPRPRPTMLPRP are within 0.2 log units of each other in “shrunken log2 fold change” value: 0.0801 for the first, -0.119 for the second.

Compared with RRIRPRPPRLPRPRPRPCKWPRP, RRIRGRPPRLPRPRPRPALNPRP is higher in “shrunken log2 fold change” value: -0.32 for the first, 0.705 for the second.

First: RRIRYRPPRLPRPRPRPQGEPRP
Second: RRIRKRPPRLPRPRPRPAVHPRP
The “shrunken log2 fold change” value of the first is lower: -0.325 for the first, 0.112 for the second.

First: RRIRDRPPRLPRPRPRPFTHPRP
Second: RRIRGRPPRLPRPRPRPELKPRP
The “shrunken log2 fold change” value of the first is lower: -0.0968 for the first, 0.336 for the second.

First: RRIRYRPPRLPRPRPRPQIWPRP
Second: RRIRWRPPRLPRPRPRPLRKPRP
The “shrunken log2 fold change” value of the first is lower: -0.662 for the first, 0.944 for the second.

Compared with RRIRFRPPRLPRPRPRPVIRPRP, RRIRHRPPRLPRPRPRPYRRPRP is higher in “shrunken log2 fold change” value: -0.68 for the first, -0.142 for the second.

Going from RRIRMRPPRLPRPRPRPFSWPRP to RRIRARPPRLPRPRPRPPHKPRP, the “shrunken log2 fold change” value rises from 0.0956 to 0.996.

Going from RRIRFRPPRLPRPRPRPNPMPRP to RRIRKRPPRLPRPRPRPKETPRP, the “shrunken log2 fold change” value rises from -0.136 to 0.35.

First: RRIRSRPPRLPRPRPRPCGCPRP
Second: RRIRVRPPRLPRPRPRPHYNPRP
The “shrunken log2 fold change” value of the first is higher: -0.00437 for the first, -0.366 for the second.

RRIRVRPPRLPRPRPRPQADPRP and RRIRCRPPRLPRPRPRPMEGPRP are within 0.2 log units of each other in “shrunken log2 fold change” value: 0.0259 for the first, -0.00776 for the second.

RRIRMRPPRLPRPRPRPFVGPRP and RRIRWRPPRLPRPRPRPVQLPRP are within 0.2 log units of each other in “shrunken log2 fold change” value: 0.0187 for the first, 0.034 for the second.

Going from RRIRKRPPRLPRPRPRPYTGPRP to RRIRGRPPRLPRPRPRPCWKPRP, the “shrunken log2 fold change” value rises from -0.318 to 0.175.

RRIRTRPPRLPRPRPRPSQWPRP and RRIRWRPPRLPRPRPRPYAPPRP are within 0.2 log units of each other in “shrunken log2 fold change” value: -0.168 for the first, -0.232 for the second.

RRIRHRPPRLPRPRPRPMWYPRP and RRIRRRPPRLPRPRPRPWVNPRP are within 0.2 log units of each other in “shrunken log2 fold change” value: -0.0997 for the first, -0.0334 for the second.

Going from RRIRTRPPRLPRPRPRPRGSPRP to RRIRKRPPRLPRPRPRPKREPRP, the “shrunken log2 fold change” value rises from 0.177 to 0.393.

RRIRTRPPRLPRPRPRPESDPRP and RRIRHRPPRLPRPRPRPDPIPRP are within 0.2 log units of each other in “shrunken log2 fold change” value: -0.0712 for the first, 0.0172 for the second.

RRIRDRPPRLPRPRPRPCPQPRP and RRIRHRPPRLPRPRPRPADIPRP are within 0.2 log units of each other in “shrunken log2 fold change” value: -0.132 for the first, -0.102 for the second.

Compared with RRIRHRPPRLPRPRPRPLGPPRP, RRIRHRPPRLPRPRPRPSHHPRP is lower in “shrunken log2 fold change” value: 0.191 for the first, -0.267 for the second.

First: RRIRARPPRLPRPRPRPRRWPRP
Second: RRIRKRPPRLPRPRPRPILPPRP
The “shrunken log2 fold change” value of the first is lower: 0.739 for the first, 2.29 for the second.

RRIRQRPPRLPRPRPRPQVQPRP and RRIRRRPPRLPRPRPRPMSNPRP are within 0.2 log units of each other in “shrunken log2 fold change” value: -0.00173 for the first, -0.0453 for the second.

Compared with RRIRRRPPRLPRPRPRPQRYPRP, RRIRTRPPRLPRPRPRPTPCPRP is higher in “shrunken log2 fold change” value: -0.15 for the first, 0.124 for the second.

Compared with RRIRPRPPRLPRPRPRPCGNPRP, RRIRWRPPRLPRPRPRPAYNPRP is lower in “shrunken log2 fold change” value: -0.0502 for the first, -0.389 for the second.

Going from RRIRDRPPRLPRPRPRPPGSPRP to RRIRLRPPRLPRPRPRPYRLPRP, the “shrunken log2 fold change” value falls from 0.511 to -0.0305.

RRIRVRPPRLPRPRPRPFTNPRP and RRIRNRPPRLPRPRPRPEPSPRP are within 0.2 log units of each other in “shrunken log2 fold change” value: -0.0456 for the first, 0.145 for the second.

RRIRVRPPRLPRPRPRPLWIPRP and RRIRYRPPRLPRPRPRPGHGPRP are within 0.2 log units of each other in “shrunken log2 fold change” value: -0.189 for the first, -0.111 for the second.

RRIRMRPPRLPRPRPRPIEIPRP and RRIRYRPPRLPRPRPRPIAAPRP are within 0.2 log units of each other in “shrunken log2 fold change” value: -0.0115 for the first, -0.158 for the second.

RRIRCRPPRLPRPRPRPNSWPRP and RRIRNRPPRLPRPRPRPAMPPRP are within 0.2 log units of each other in “shrunken log2 fold change” value: 0.0889 for the first, 0.236 for the second.

With RRIRGRPPRLPRPRPRPAWVPRP the “shrunken log2 fold change” value was 0.456.
